In article PMC8455534, “A new carboxypeptidase from Aspergillus niger with good thermostability, pH stability and broad substrate specificity” (Scientific Reports, 2021):

Legend:
Test in all cases: ninhydrin release assay, A570, Lineweaver-Burk
Type in all cases: biochemical, Aspergillus niger
Details in all cases: 0.1 mol L^−1 disodium hydrogen phosphate-citric acid buffer, pH 6.0, 45 °C
[1] = test system: T1, CC(C)C[C@H](NC(=O)[C@H](Cc1ccccc1)NC(=O)OCc1ccccc1)C(=O)O
T1 construct: ORF 1479 bp, 492 residues with predicted 19-residue signal peptide; secreted from Pichia pastoris GS115 (pPIC9K), purified; no tag told
Source text: (§1) ninhydrin release assay, A570, Lineweaver-Burk on CapA (serine carboxypeptidase)

[2] = test system: T2, C[C@H](NC(=O)CNC(=O)OCc1ccccc1)C(=O)O
T2 construct: ORF 1479 bp, 492 residues with predicted 19-residue signal peptide; secreted from Pichia pastoris GS115 (pPIC9K), purified; no tag told
Source text: as §1

[3] = test system: T3, O=C(O)CNC(=O)[C@@H]1CCCN1C(=O)OCc1ccccc1
T3 construct: ORF 1479 bp, 492 residues with predicted 19-residue signal peptide; secreted from Pichia pastoris GS115 (pPIC9K), purified; no tag told
Source text: as §1

[4] = test system: T4, C[C@H](NC(=O)OCc1ccccc1)C(=O)N[C@@H](CCCCN)C(=O)O
T4 construct: ORF 1479 bp, 492 residues with predicted 19-residue signal peptide; secreted from Pichia pastoris GS115 (pPIC9K), purified; no tag told
Source text: as §1

[5] = test system: T5, C[C@H](NC(=O)OCc1ccccc1)C(=O)N[C@@H](CCC(=O)O)C(=O)O
T5 construct: ORF 1479 bp, 492 residues with predicted 19-residue signal peptide; secreted from Pichia pastoris GS115 (pPIC9K), purified; no tag told
Source text: as §1

“CapA (serine carboxypeptidase) (Aspergillus niger CBS 513.88)” showed a Km [1] of 63 ± 10 µM, a Vmax [1] of 54800 µM/min/mg and a kcat [1] of 11.7 ± 1.02 s⁻¹. It also gave a kcat/Km [1] of 186000 ± 16700 M⁻¹ s⁻¹, a Km [2] of 240 ± 20 µM and a Vmax [2] of 42700 µM/min/mg. It also gave a kcat [2] of 1.71 ± 0.08 s⁻¹, a kcat/Km [2] of 7130 ± 480 M⁻¹ s⁻¹ and a Km [3] of 1170 ± 210 µM. It also gave a Vmax [3] of 9770 µM/min/mg, a kcat [3] of 0.47 ± 0.02 s⁻¹ and a kcat/Km [3] of 400 ± 50 M⁻¹ s⁻¹. It also gave a Km [4] of 180 ± 30 µM, a Vmax [4] of 41900 µM/min/mg and a kcat [4] of 2.32 ± 0.17 s⁻¹. It also gave a kcat/Km [4] of 12900 ± 1130 M⁻¹ s⁻¹, a Km [5] of 1440 ± 90 µM and a Vmax [5] of 6490 µM/min/mg. The kcat [5] was 0.18 ± 0.01 s⁻¹ and the kcat/Km [5] was 130 ± 10 M⁻¹ s⁻¹.
